The values that follow come from publication PMC3961692.

The target in series [1] is human interleukin-6 (Homo sapiens) (UniProt P05231). In words: solution affinity (radiolabel, ZORBAX resin capture). The note with it: SB17T: 40 mM HEPES pH 7.5, 102 mM NaCl, 5 mM KCl, 5 mM MgCl2, 1 mM EDTA, 0.05% Tween 20, 37 C.
For series [2] the target is unchanged. In words: SPR. The note with it: 2'-OMe at C3,G6,A16,A19,C20,C28; Bn-dU9 to Pe-dU; Bn-dU12 to Nap-dU; other dT Bn-dU; SB17T: 40 mM HEPES pH 7.5, 102 mM NaCl, 5 mM KCl, 5 mM MgCl2, 1 mM EDTA, 0.05% Tween 20, 37 C.

human interleukin-6 (Homo sapiens), sequence (P05231 30-212): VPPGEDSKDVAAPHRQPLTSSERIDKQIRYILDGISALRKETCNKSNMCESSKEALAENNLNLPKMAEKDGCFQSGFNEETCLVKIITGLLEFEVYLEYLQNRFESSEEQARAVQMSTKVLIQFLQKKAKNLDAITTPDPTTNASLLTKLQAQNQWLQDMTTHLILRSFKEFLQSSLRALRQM

What is called Kd is the concentration at which binding is half-saturated. On to “GGCAGGUUUGGUAUUAACACGUUAAGUCGUGG [SL1025]”, for which the Kd in series [1] (2'-OMe at C3,G6,A16,A19,C20,C28, Bn-dU9 to Pe-dU, Bn-dU12 to Nap-dU, other dT Bn-dU) is 0.16 nM; in series [2], 0.23 nM. “GGGGUUAUGUAGCGAGUGCGUAAGGCGGUGGGCGAGGGA [SL1030]” had a binding signal (fold weaker than SL1032) in series [1] (Nap-dU replaces dT) of 10. In turn, “GGCAGGUUUGGUAUUAACACGUUAAGUCGUGG [SL1023]” returned a Kd in series [1] (Bn-dU replaces dT) of 1 nM. That is a single-digit nanomolar value.
